Laboratory results reported in PMC3955203.

Biological target: Blinkin (UniProt Q8NG31)
Test: GST pull-down from mitotic lysate
Details: sites Y207

Substance | binding against the reference (reference: GST-Bub3 WT with His-PKM2, no PEP) | binding against the reference (reference: GST-Bub3 WT, PEP, no His-PKM2) | binding against the reference (reference: GST-Bub3 WT without His-PKM2)
Bub3 (from UniProt O43684) GST-Bub3 WT with His-PKM2 and PEP | stronger | stronger | 
Bub3 (from UniProt O43684) GST-Bub3 WT incubated with His-PKM2 |  |  | stronger
